Several values for one entry are separate records, joined by “and”; a condition that tells them apart may be missing. Identical values can stand only once.
Assays:
[1] = target: T1, CS1 protein (SLAM family member 7, CD319) on cells (human, UniProt Q9NQ25 23-335); experiment: binding titration by flow cytometry on CHO-CS1 cells
T1 construct: The cells are CHO-CS1 (bought from BPS Bioscience), Hela-CS1 (transduced with CS1 cDNA lentivirus) and the myeloma lines, which carry CS1 of their own; also called CHO-CS1 cells; Hela-CS1 cells
T1 sequence: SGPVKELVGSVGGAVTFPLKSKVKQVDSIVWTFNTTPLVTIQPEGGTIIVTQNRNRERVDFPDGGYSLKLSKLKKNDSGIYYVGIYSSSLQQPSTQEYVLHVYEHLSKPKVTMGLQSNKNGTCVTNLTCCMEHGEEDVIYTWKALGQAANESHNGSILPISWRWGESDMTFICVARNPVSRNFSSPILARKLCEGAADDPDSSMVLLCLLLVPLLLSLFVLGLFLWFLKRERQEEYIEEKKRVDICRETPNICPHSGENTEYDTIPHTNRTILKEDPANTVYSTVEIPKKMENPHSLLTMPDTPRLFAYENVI

[2] = target: T1, CS1 protein (SLAM family member 7, …); experiment: flow cytometry binding titration on CHO-CS1 cells

B1: mouse monoclonal anti-human CS1 antibody, clone 7A8D5 (antibody, V domains shown)
VH: VQLQQSGPEVVRPGVSVKISCKGSGYTFTDYAIHWVKQSHAKSLEWIGVINTYNGNTNYNQKFKGKATMTVDKSSSTAYMELARLTSEDSAIYYCTRTGYYYGPSHYFDYWGQGTTLTVSS
VL: DIVLTQSPASLTVSLGQRATMSCRASKSVSTSGYSYVHWYQQKPGQPPKLLIYLASNLESGVPARFSASGSGTDFTLNIHPVEEEDAATYYCQHSRELPWTFGGGTKLEIKR
notes: Mouse monoclonal antibody from a hybridoma, purified on a Protein G column; also called anti-CS1 antibody clone 7A8D5; CS1 clone 7A8D5
Kd [1]: 5.3 nM and 0.8 µg/mL
EC50 (read off the curve) [2]: ~0.7 µg/mL

Source: US20230295331A1 (PROMAB BIOTECHNOLOGIES, published 2023)
